Source: the DeepSol protein solubility set

experiment: soluble on expression in E. coli; label from the status in PepcDB or PDB records

Row | Sequence | soluble on expression in E. coli
1 | MENTVLNLDSDVIHACEAIFQPIRLVYTHAQTPDVSGVSMLEKIQQILPQIAKNAESAEQLRRVPDENIKLLKEIGLHRAFQPKVYGGLEMSLPDFANCIVTLAGACAGTAWAFSLLCTHSHQIAMFSKQLQDEIWLKDPDATASSSIAPFGKVEEVEGGIILNGDYGWSSGCDHAEYAIVGFNRFDADGNKIYSFGVIPRSDYEIVDNWYAQAIKSSGSKMLKLVNVFIPEYRISKAKDMMEGKSAGFGLYPDSKIFYTPYRPYFASGFSAVSLGIAERMIEAFKEKQRNRVRAYTGANVGLATPALMRIAESTHQVAAARALLEKTWEDHRIHGLNHQYPNKETLAFWRTNQAYAVKMCIEAVDRLMAAAGATSFMDNSELQRLFRDAHMTGAHAYTDYDVCAQILGRELMGMEPDPTMV | soluble
2 | AEALAAGQRRIAKGERDFKDRVGFLRGRARPASTLITRFIADHQGHREGPDGLRWGVESICTQLTELGVPIAPSTYYDHINREPSRRELRDGELKEHISRVHAANYGVYGARKVWLTLNREGIEVARCTVERLMTKLGLSGTTRGKARRTTIADPATARPADLVQRRFGPPAPNRLWVADLTYVSTWAGFAYVAFVTDAYARRILGWRVASTMATSMVLDAIEQAIWTRQQEGVLDLKDVIHHTDRGSQYTSIRFSERLAEAGIQPSVGAVGSSYDNALAETINGLYKTELIKPGKPWRSIEDVELATARWVDWFNHRRLYQYCGDVPPVELEAAYYAQRQRPAAG | soluble
3 | MTCEVLITEFVAHPSDITDAYARYQQRIQDAPLHIVCSSPRPLPSKGSAYAQWSLRCESAYAQKSHPELMQCYELRSLVTYEETPDPDDSLIEKFFFEDCAEPTVYSASVNRLDIELGAVDTRCTDELCIVTPVFLAHSEHAEVLQSLYEVLVSNADPVAYAASIAECDDISQANLIGLLWVRDAQRTMSNVGDQIYAMGKTAWTGWILVEASKQEELQLQLSELIDATNAVAYLTATPW | soluble
4 | MFDVLMYLFETYIHNEAELRVDQDRLERDLTDAGFDREDIYNALLWLEKLADYQDGLAEPMQLASDPLSMRIYTVEECERLDASCRGFLLFLEQIQVLNLETREMVIERVLALDTAEFDLEDLKWVILMVLFNIPGCENAYQQMEELLFEVNEGMLH | not soluble
5 | MGSDKIHHHHHHMKILFISSLYAPDIGGGAEIILQRTVEGLQQRGYSIAVLATTDRPGLQLAEVNRVKVYRAGLLNQYWHFMPQRPERLARFAWHWRDRYNGGMRDYVRQVIELEQPELVVCHNLTGWSVSAWDEITRANRPVVQVLHDLYLLCPSSTMFKKGQSCQRQCSLCTQFRKHHAQQSEQVSTVVGVSRFMLDTLQAQGYFKGARGYVVHNASPFTPPHAGQTKAADDTAPLRFGYLGTLSENKGVGWLINQFQHLPFKATLQIAGRGQSNDEKRFRAMATSPDISFVGFQKPEDFYQHIDVAIVPSMWNEPFGLVAVEACAHSRPVIASRMGGLPEIIQDQLNGLLCSPDDPDSLGLAMLKLHQQPELLARLGSQARNSVASLLNLDLMLDQYESIFAQTLQDRSTWHGERVQLDPG | not soluble
6 | MAHHHHHHMSGQAGKQVAPVKCKGWAVEKPALKWSTDAVRLSDVTVPAPDPTQIRVRVYAASINPVDWKRVMFPASGSGPGVAGSALKGFKGMHHKPPNYPYPYVVGVDGAGEVESVGRKVTGLKAGDRVMFHSSLTNAHGGSLCEYAVMEESVAVPIPADGARPFSYEEAAAIPCATWTAYVALFDKLRIEPGRSIFVDGASGAVGSCAVQLAHHMGLYVFASCSPSNADYVRSIGADQVLNYHDGIEMVDQILDATEGYGVDYYLAVTNTQDAESFTDALRFGGAVCLLSGVLIPNSNVLFRRQLSVHYVFLNGLHGHPLTRPQLRYIGDQVAKLYQSGAFRLDVEVLPFAEAAKALDRSATGNVNHKKLIVQVASP | soluble
7 | KKTFLTVRGNLTFNKDKIIENDEPPVDYPWMETRGTNVNATWGFIADGLFTSQAEIEDHATQFGTVHVGDIKYRDLNGDGVIDNYDKTVIGRGDVPRIYYGFGADLQIGDFSISALFQGTGQADRYLDGICIKPFWDDEGRDNVFANIHDRWSPDDPTNQDVFYPRMYVGSDANTNNVQKSSWWVKDVSFLRLKQLNISYNIPKKLLDRCFLKSASVYLMGTNLLTFSNFKLWDPELNTSNGTAYPNVSSYSVGVKFSF | not soluble
8 | MDYRQLHRWDLPPEEAIKVQNELRKKIKLTPYEGEPEYVAGVDLSFPGKEEGLAVIVVLEYPSFKILEVVSERGEITFPYIPGLLAFREGPLFLKAWEKLRTKPDVVVFDGQGLAHPRKLGIASHMGLFIEIPTIGVAKSRLYGTFKMPEDKRCSWSYLYDGEEIIGCVIRTKEGSAPIFVSPGHLMDVESSKRLIKAFTLPGRRIPEPTRLAHIYTQRLKKGLFLEHHHHHH | soluble
9 | MGSDKIHHHHHHMKTSQLIRKIQEKIDEAMSRLNDLESMEIKTEEYLDTFLALVNNTYKKAEIYNTLVDQWNLLMKQGDEIKRSIEEFKPEYVHHLTEMMKYDGINLLYLRENEHLRAIGIDEIAARTFQEFLKEEELAERSEAFNQAVRKTREQIQQYHMFHYYVSLTDNELKVDENYRLAGNYYRYSIDFFDKNFPYKSIGISRKLENVPELLEKFFRLREKLEGEDPEGDRVRKTLERLYSLSSFDTVEEFNAIIDEWTDLYEAYKQEDPFKTNVLSYSYINKDGRTVQKTYPTYDFLRWLSQRNRKNQEYILNNYLRRITDDPTREGYEIRDPSVVLENRLVEATIKALPNYKSGIMSEIDSLKKMSRMKRKRKEEEIQKKIMTDPFAAVGAKVPEEIKYWLLRRLDVTHPDLYEEWNRITSELQAYLEEVVKQ | not soluble
10 | SGLRDWLRTVCCCCGCECLEERALPEKEPLVSDNNPYSSFGATLVRDDEKNLWSMPHDVSHTEADDDRTLYNLIVIRNQQAKDSEEWQKLNYDIHTLRQVRREVRNRWKCILEDLGFQKEADSLLSVTKLSTISDSKNTRKAREMLLKLAEETNIFPTSWELSERYLFVVDRLIALDAAEEFFKLARRTYPKKPGVPCLADGQKELHYLPFPSP | soluble
11 | MGSDKIHHHHHHMEQQIPFSYVIISPENATEKEGYMISTIDKCGFFFCQKGEVEVALNDKSYLISKGSVCIYMTGSLLRIQRISKDIKGIMLEVDLNYIIPIVNKIVNSENLLYLRENPCFSITEYQYNYLEQLIKALQQRMDIKAHDIPLQRQHLISELIKSWGQTLCYELLNVYFTNQPLKPLSQDKKDKIFQNFVITLFRYYQQERDVTFYASKQYLSSRYFSAVIKEKSGSTALQWIVQMVITEAKQLLENSDLTIKEIATKLNFPTQSFFGKYFKQYVGVSPKEYRNKQIRQLPF | not soluble
12 | MGSDKIHHHHHHMKNLLGYSEDYLKERKGYITAKEICNQPKLWRETYEIILSQREKLKSFLDNFAKKPNAKIVITGAGSSAFVGNSVVSYLNAKENIKIEAIATTDIVSHPFYYLKKDEPTLLISCARSGNSPESTAAVTLAEKIVDDISHLIITCNSEGKLALHAKRNYNSFLLLMPEESNDKGFAMTGSFSTMLLSCLLIFNLDKLESIGKQIESISMQGEKVLVNNVELMKKIVGEKFKRTVYLGAANAFGLAKESALKVLELTAGKIATLYDTPLGFRHGPKSIIDDETLIVIFFSNDTYAREYEYDLLKEVYSQNGNHKVLAISEYEDKLIEDNSDYFIAINKEEQEYEDDSFLSLDYLLNAQMYAFINSMELGIGPDNPCPTGEVNRVVKGVIIHDYR | not soluble
13 | MNQGERNAVSLLKDKLFNEEGKPVNLIFCYTILQMKVAERIMAQHPGERFYVVLMSENRNEKYDYYFNQIKDKAERAYFFYLPYGLNKSFNFIPTMAELKVKSMLLPKVKRIYLASLEKVSIAAFLSTYPDAEIKTFDDGTNNLIRESSYLGGEFAVNGAIKRNFARMMVGDWSIAKTRNASDEHYTIFKGLKNIMDDGRRKMTYLPLFDASELKAGDETGGTVRILLGSPDKEMKEISEKAAKNFNIQYVAPHPRQTYGLSGVTALNSPYVIEDYILREIKKNPHTRYEIYTFFSGAALTMKDFPNVHVYALKPASLPEDYWLKPVYALFRQADIPILAFDDKLEHHHHHH | not soluble
14 | MSLSLFQAILTSMEPREGGEKVFPSDLMIARKTKTGIIYPVFLSDDNIDYARAVISVFTLNTGKKKEVIENNLKEIELKFQNAKIIRALSLIMMRKSIFVPPVNIDAQALREYIFSMARIPPINSNEREMILKSAAESFNIDYIDIENAIYADKDSESILERPYNTDEGKLIREYNLEQLETVLLKCTELNISNASDWHFVITMIRRLGLLYEIKNDGDKIISVNITGPMALFENTERYGSKFSMLIRSIYKMNEWSLTASIKVKDFSGDKNIYTLKLSDSAKFFLPPGTIKPEHLPEHVSRGYPIIINNKFYFPDYIIDLDERIYVSINSDEKPDNLNWINVYILSDRDKKKPGSIAFYNDMDWDELFNLISKKRNLSSEIDNYSIDEIKKKLDQIYPDSQGMIDYLESQGLIPLRVLPELGYKIKWKNLDIIIEKAEGHHHHHH | not soluble
15 | MGHHHHHHSHALLEKEILEKVSSPFIVSLAYAFESKTHLCLVMSLMNGGDLKFHIYNVGTRGLDMSRVIFYSAQIACGMLHLHELGIVYRDMKPENVLLDDLGNCRLSDLGLAVEMKGGKPITQRAGTNGYMAPEILMEKVSYSYPVDWFAMGCSIYEMVAGRTPFKDYKEKVSKEDLKQRTLQDEVKFQHDNFTEEAKDICRLFLAKKPEQRLGSR | not soluble
16 | MRLRLLSLPFILSLCAPLLPLNTLAAERIVTIGGDVTEIAYALGAGDEIVARDSTSQQPQAAQKLPDVGYMRTLNAEGILAMKPTMLLVSELAQPSLVLTQIASSGVNVVTVPGQTTPESVAMKINAVATALHQTEKGQKLIEDYQQRLAAVNKTPLPVKVLFVMSHGGLTPMAAGQNTAADAMIRAAGGSNAMQGFSRYRPLSQEGVIASAPDLLLITTDGVKALGSSENIWKLPGMALTPAGKHKRLLVVDDMALLGFGLETPQVLAQLREKMEQMQ | not soluble
17 | MGSSHHHHHHSSGLVPRGSHMSRAYDLVVLGAGSGGLEAGWNAAVTHKKKVAVVDVQATHGPPLFAALGGTCVNVGCVPKKLMVTGAQYMDLIRESGGFGWEMDRESLCPNWKTLIAAKNKVVNSINESYKSMFADTEGLSFHMGFGALQDAHTVVVRKSEDPHSDVLETLDTEYILIATGSWPTRLGVPGDEFCITSNEAFYLEDAPKRMLCVGGGYIAVEFAGIFNGYKPCGGYVDLCYRGDLILRGFDTEVRKSLTKQLGANGIRVRTNLNPTKITKNEDGSNHVHFNDGTEEDYDQVMLAIGRVPRSQALQLDKAGVRTGKNGAVQVDAYSKTSVDNIYAIGDVTNRVMLTPVAINEGAAFVETVFGGKPRATDHTKVACAVFSIPPIGTCGMTEEEAAKNYETVAVYASSFTPLMHNISGSKHKEFMIRIITNESNGEVLGVHMLGDSAPEIIQSVGICMKMGAKISDFHSTIGVHPTSAEELCSMRTPAYFYESGKRVEKLSSNL | soluble
18 | VNEIVVNPNATLDWQLALRQAAGKTDLARDMLQMLLDFLPEVRNKVEEQLVGENPEGLVDLIHKLHGSCGYSGVPRMKNLCQLIEQQLRSGTKEEDLEPELLELLDEMDNVAREASKILG | soluble
19 | DLHNMLLTRNQELDVAYQTIRQDLESAGDLMRQLLPVEQQIGATKLSYSYLPCSQLGGDMLGYAALDEQHVAFYVFDVSGHGISSALMSFSIQKTLSRSCGPESVTTDLVEGEYVVSEPNVVVERLNLRYQQTPDSQLYFTIVYAVLNTQTGKLRYCTAGHPKFLWRHQSEATIDMVGDENFIVGALAPMQYKGGEITLEPNDSIWCFSDGVVEARYENEFFSVNRLIANVQSVSGLPFEAQVSSVVESIKRWQVKEELDDDLTLLQLQWFGPNTSTCEGEDD | not soluble
20 | METIFEDEETMMAAEQSSSGISANSNSNCSASKTEKASKKPKNAIPKVKNSGIHKKPAKSDFDEFLSSMKSRLSQATSMKSNKEQLKMLEETQKLIFDRITKSADARDMEHLEKQMNKL | soluble
